Measured values as given in article PMC8191316, “Structural basis for CD97 recognition of the decay-accelerating factor CD55 suggests mechanosensitive activation of adhesion GPCRs” (The Journal of Biological Chemistry, 2021).

B1: CD97 EGF_(1,2,5) fragment, WT, without His-tag (SPR construct with TEV site) [human] / CD55 SCR1–4 domains (35–285), His-tagged [human] (parent)
chain 1: QDSRGCARWCPQNSSCVNATACRCNPGFSSFSEIITTPTETCDDINECATPSKVSCGKFSDCWNTEGSYDCVCSPGYEPVSGAKTFKNESENTCQDVDECSSGQHQCDSSTVCFNTVGSYSCRCRPGWKPRHGIPNNQKDTVCED
chain 2: DCGLPPDVPNAQPALEGRTSFPEDTVITYKCEESFVKIPGEKDSVICLKGSQWSDIEEFCNRSCEVPTRLNSASLKQPYITQNYFPVGTVVEYECRPGYRREPSLSPKLTCLQNLKWSTAVEFCKKKSCPNPGEIRNGQIDVPGGILFGATISFSCNTGYKLFGSTSSFCLISGSSVQWSDPLPECREIYCPAPPQIDNGIIQGERDHYGYRQSVTYACNKGFTMIGEHSIYCTVNNDEGEWSGPPPECRG

Variants of: B1
Assay: SPR
Conditions: with CD55 SCR1–4 domains (35–285), His-tagged CD55 immobilized on NTA chip, CD97(D63L) titrated at 0.2, 0.5, 1, 5, 10, 20 µM

| Variant | koff |
| --- | --- |
| chain 1 QDSRGCARWCPQNSSCVNATACRCNPGFSSFSEIITTPTETCLDINECATPSKVSCGKFSDCWNTEGSYDCVCSPGYEPVSGAKTFKNESENTCQDVDECSSGQHQCDSSTVCFNTVGSYSCRCRPGWKPRHGIPNNQKDTVCED [chain 1 D43L] | 0.968 10^-3 s-1 |

Same assay, conditions: with CD55 SCR1–4 domains (35–285), His-tagged CD55 immobilized on NTA chip, CD97(D63L) titrated at 0.2, 0.5, 1, 5, 10, 20 µM, parent: 546

| Variant | kon [M⁻¹ s⁻¹] |
| --- | --- |
| chain 1 QDSRGCARWCPQNSSCVNATACRCNPGFSSFSEIITTPTETCLDINECATPSKVSCGKFSDCWNTEGSYDCVCSPGYEPVSGAKTFKNESENTCQDVDECSSGQHQCDSSTVCFNTVGSYSCRCRPGWKPRHGIPNNQKDTVCED [chain 1 D43L] | 11.2 |

Same assay, conditions: with CD55 SCR1–4 domains (35–285), His-tagged CD55 immobilized on NTA chip, CD97(D81A) titrated at 0.2, 0.5, 1, 2, 5, 10, 20 µM

| Variant | koff |
| --- | --- |
| chain 1 QDSRGCARWCPQNSSCVNATACRCNPGFSSFSEIITTPTETCDDINECATPSKVSCGKFSACWNTEGSYDCVCSPGYEPVSGAKTFKNESENTCQDVDECSSGQHQCDSSTVCFNTVGSYSCRCRPGWKPRHGIPNNQKDTVCED [chain 1 D61A] | 1.22 10^-3 s-1 |

Same assay, conditions: with CD55 SCR1–4 domains (35–285), His-tagged CD55 immobilized on NTA chip, CD97(D81A) titrated at 0.2, 0.5, 1, 2, 5, 10, 20 µM, parent: 546

| Variant | kon [M⁻¹ s⁻¹] |
| --- | --- |
| chain 1 QDSRGCARWCPQNSSCVNATACRCNPGFSSFSEIITTPTETCDDINECATPSKVSCGKFSACWNTEGSYDCVCSPGYEPVSGAKTFKNESENTCQDVDECSSGQHQCDSSTVCFNTVGSYSCRCRPGWKPRHGIPNNQKDTVCED [chain 1 D61A] | 20.2 |

Same assay, conditions: with CD55 SCR1–4 domains (35–285), His-tagged CD55 immobilized on NTA chip, CD97(E86A) titrated at 0.2, 0.5, 1, 2, 5, 10, 20, 30 µM

| Variant | koff |
| --- | --- |
| chain 1 QDSRGCARWCPQNSSCVNATACRCNPGFSSFSEIITTPTETCDDINECATPSKVSCGKFSDCWNTAGSYDCVCSPGYEPVSGAKTFKNESENTCQDVDECSSGQHQCDSSTVCFNTVGSYSCRCRPGWKPRHGIPNNQKDTVCED [chain 1 E66A] | 1.41 10^-3 s-1 |

Same assay, conditions: with CD55 SCR1–4 domains (35–285), His-tagged CD55 immobilized on NTA chip, CD97(E86A) titrated at 0.2, 0.5, 1, 2, 5, 10, 20, 30 µM, parent: 546

| Variant | kon [M⁻¹ s⁻¹] |
| --- | --- |
| chain 1 QDSRGCARWCPQNSSCVNATACRCNPGFSSFSEIITTPTETCDDINECATPSKVSCGKFSDCWNTAGSYDCVCSPGYEPVSGAKTFKNESENTCQDVDECSSGQHQCDSSTVCFNTVGSYSCRCRPGWKPRHGIPNNQKDTVCED [chain 1 E66A] | 80.1 |

Same assay, conditions: with CD55 SCR1–4 domains (35–285), His-tagged CD55 immobilized on NTA chip, CD97(V137A) titrated at 0.2, 0.5, 1, 2, 5, 10, 20 µM

| Variant | koff |
| --- | --- |
| chain 1 QDSRGCARWCPQNSSCVNATACRCNPGFSSFSEIITTPTETCDDINECATPSKVSCGKFSDCWNTEGSYDCVCSPGYEPVSGAKTFKNESENTCQDVDECSSGQHQCDSSTVCFNTAGSYSCRCRPGWKPRHGIPNNQKDTVCED [chain 1 V117A] | 1.63 10^-3 s-1 |

Same assay, conditions: with CD55 SCR1–4 domains (35–285), His-tagged CD55 immobilized on NTA chip, CD97(V137A) titrated at 0.2, 0.5, 1, 2, 5, 10, 20 µM, parent: 546

| Variant | kon [M⁻¹ s⁻¹] |
| --- | --- |
| chain 1 QDSRGCARWCPQNSSCVNATACRCNPGFSSFSEIITTPTETCDDINECATPSKVSCGKFSDCWNTEGSYDCVCSPGYEPVSGAKTFKNESENTCQDVDECSSGQHQCDSSTVCFNTAGSYSCRCRPGWKPRHGIPNNQKDTVCED [chain 1 V117A] | 64 |
